Results on 18 molecules are retold here after patent publication US20250163164A1 (LANOVA MEDICINES DEVELOPMENT, published 2025).

The EC50 is the midpoint of the concentration-response curve. A high value points to lower potency in that assay.

Where “and” joins values, the source holds several entries; their conditions need not be identical. Identical values can stand only once.

B1: 62A8D8 (antibody, V domains shown)
VH: EVKLVESGGGLVKPGGSLKLSCAASGFTFSSYGMSWVRQTPEKRLEWVATISGGGSYTYYPDSVKGRFTISRDNAKNNLYLQMSSLRSEDTALYYCARRDLRSAMDYWGQGTSVTVSS
VL: DIVMTQSQKFMSTSVGDRVSVTCKASQNVDINVAWYQQKPGQSPKALIYSASYRYSGVPDRFTGSGSGTDFTLTISNVQSEDLAEFFCQQYNNYPLTFGGGTKLEIK
notes: purified mouse antibody
B2: 73A11E2 H2L2 hIgG1 (antibody, V domains shown)
VH: QVQLVQSGAEVVKPGASVKVSCKASGFTFSSYGMSWVRQAPGQGLEWVGTISGGGSYTYYPESVKGRFTITRDTSTSTAYMELRSLRSDDTAVYYCARRDLRSAMDYWGQGTLVTVSS
VL: DIVMTQSPLSLPVTLGQPASISCKASQNVDINVAWYQQRPGQSPRALIYSASYRYSGVPDRFSGSGSGTDFTLKISRVEAEDVGVFYCQQYNAYPLTFGQGTKLEIK
notes: humanized, hIgG1
B3: 73A11E2 H4L1 hIgG1 (antibody, V domains shown)
VH: QVKLVESGAEVVKPGASVKLSCKASGFTFSSYGMSWVRQAPGQRLEWVATISGGGSYTYYPESVKGRFTITRDNSTSTLYLEMRSLRSDDTAVYYCARRDLRSAMDYWGQGTLVTVSS
VL: DVVMTQSPLSLPVTLGQPASISCKASQNVDINVAWFQQRPGQSPRRLIYSASYRYSGVPDRFSGSGSGTDFTLKISRVEAEDVGVYYCQQYNAYPLTFGQGTKLEIK
notes: humanized, hIgG1
B4: 73A11E2 H4L4 hIgG1 (antibody, V domains shown)
VH: QVKLVESGAEVVKPGASVKLSCKASGFTFSSYGMSWVRQAPGQRLEWVATISGGGSYTYYPESVKGRFTITRDNSTSTLYLEMRSLRSDDTAVYYCARRDLRSAMDYWGQGTLVTVSS
VL: DIVMTQSPLSLPTTLGQPVSVSCKASQNVDINVAWYQQRPGQSPRALIYSASYRYSGVPDRFSGSGSGTDFTLTISRVEAEDVAVFFCQQYNAYPLTFGGGTKLEIK
notes: humanized, hIgG1
B5: 73A11E2 H2L3 hIgG1 (antibody, V domains shown)
VH: QVQLVQSGAEVVKPGASVKVSCKASGFTFSSYGMSWVRQAPGQGLEWVGTISGGGSYTYYPESVKGRFTITRDTSTSTAYMELRSLRSDDTAVYYCARRDLRSAMDYWGQGTLVTVSS
VL: DIVMTQSPLSLPTTLGQPASISCKASQNVDINVAWYQQRPGQSPRALIYSASYRYSGVPDRFSGSGSGTDFTLTISRVEAEDVGVFYCQQYNAYPLTFGGGTKLEIK
notes: humanized, hIgG1
B6: 73A11E2 H1L3 hIgG1 (antibody, V domains shown)
VH: QVQLVQSGAEVKKPGASVKVSCKASGFTFSSYGMSWVRQAPGQGLEWMGTISGGGSYTYYPESVKGRVTMTTDTSTSTAYMELRSLRSDDTAVYYCARRDLRSAMDYWGQGTLVTVSS
VL: DIVMTQSPLSLPTTLGQPASISCKASQNVDINVAWYQQRPGQSPRALIYSASYRYSGVPDRFSGSGSGTDFTLTISRVEAEDVGVFYCQQYNAYPLTFGGGTKLEIK
notes: humanized, hIgG1
B7: 73A11E2 H4L2 hIgG1 (antibody, V domains shown)
VH: QVKLVESGAEVVKPGASVKLSCKASGFTFSSYGMSWVRQAPGQRLEWVATISGGGSYTYYPESVKGRFTITRDNSTSTLYLEMRSLRSDDTAVYYCARRDLRSAMDYWGQGTLVTVSS
VL: DIVMTQSPLSLPVTLGQPASISCKASQNVDINVAWYQQRPGQSPRALIYSASYRYSGVPDRFSGSGSGTDFTLKISRVEAEDVGVFYCQQYNAYPLTFGQGTKLEIK
notes: humanized, hIgG1
B8: 73A11E2 H3L4 hIgG1 (antibody, V domains shown)
VH: QVQLVQSGAEVVKPGASVKLSCKASGFTFSSYGMSWVRQAPGQGLEWVATISGGGSYTYYPESVKGRFTITRDNSTSTLYMEMRSLRSDDTAVYYCARRDLRSAMDYWGQGTLVTVSS
VL: DIVMTQSPLSLPTTLGQPVSVSCKASQNVDINVAWYQQRPGQSPRALIYSASYRYSGVPDRFSGSGSGTDFTLTISRVEAEDVAVFFCQQYNAYPLTFGGGTKLEIK
notes: humanized, hIgG1
B9: 73A11E2 H4L3 hIgG1 (antibody, V domains shown)
VH: QVKLVESGAEVVKPGASVKLSCKASGFTFSSYGMSWVRQAPGQRLEWVATISGGGSYTYYPESVKGRFTITRDNSTSTLYLEMRSLRSDDTAVYYCARRDLRSAMDYWGQGTLVTVSS
VL: DIVMTQSPLSLPTTLGQPASISCKASQNVDINVAWYQQRPGQSPRALIYSASYRYSGVPDRFSGSGSGTDFTLTISRVEAEDVGVFYCQQYNAYPLTFGGGTKLEIK
notes: humanized, hIgG1
B10: 73A11E2 H3L2 hIgG1 (antibody, V domains shown)
VH: QVQLVQSGAEVVKPGASVKLSCKASGFTFSSYGMSWVRQAPGQGLEWVATISGGGSYTYYPESVKGRFTITRDNSTSTLYMEMRSLRSDDTAVYYCARRDLRSAMDYWGQGTLVTVSS
VL: DIVMTQSPLSLPVTLGQPASISCKASQNVDINVAWYQQRPGQSPRALIYSASYRYSGVPDRFSGSGSGTDFTLKISRVEAEDVGVFYCQQYNAYPLTFGQGTKLEIK
notes: humanized, hIgG1
B11: 73A11E2 H3L1 hIgG1 (antibody, V domains shown)
VH: QVQLVQSGAEVVKPGASVKLSCKASGFTFSSYGMSWVRQAPGQGLEWVATISGGGSYTYYPESVKGRFTITRDNSTSTLYMEMRSLRSDDTAVYYCARRDLRSAMDYWGQGTLVTVSS
VL: DVVMTQSPLSLPVTLGQPASISCKASQNVDINVAWFQQRPGQSPRRLIYSASYRYSGVPDRFSGSGSGTDFTLKISRVEAEDVGVYYCQQYNAYPLTFGQGTKLEIK
notes: humanized, hIgG1
B12: 73A11E2 H2L4 hIgG1 (antibody, V domains shown)
VH: QVQLVQSGAEVVKPGASVKVSCKASGFTFSSYGMSWVRQAPGQGLEWVGTISGGGSYTYYPESVKGRFTITRDTSTSTAYMELRSLRSDDTAVYYCARRDLRSAMDYWGQGTLVTVSS
VL: DIVMTQSPLSLPTTLGQPVSVSCKASQNVDINVAWYQQRPGQSPRALIYSASYRYSGVPDRFSGSGSGTDFTLTISRVEAEDVAVFFCQQYNAYPLTFGGGTKLEIK
notes: humanized, hIgG1
B13: 73A11E2 H2L1 hIgG1 (antibody, V domains shown)
VH: QVQLVQSGAEVVKPGASVKVSCKASGFTFSSYGMSWVRQAPGQGLEWVGTISGGGSYTYYPESVKGRFTITRDTSTSTAYMELRSLRSDDTAVYYCARRDLRSAMDYWGQGTLVTVSS
VL: DVVMTQSPLSLPVTLGQPASISCKASQNVDINVAWFQQRPGQSPRRLIYSASYRYSGVPDRFSGSGSGTDFTLKISRVEAEDVGVYYCQQYNAYPLTFGQGTKLEIK
notes: humanized, hIgG1
B14: 73A11E2 H3L3 hIgG1 (antibody, V domains shown)
VH: QVQLVQSGAEVVKPGASVKLSCKASGFTFSSYGMSWVRQAPGQGLEWVATISGGGSYTYYPESVKGRFTITRDNSTSTLYMEMRSLRSDDTAVYYCARRDLRSAMDYWGQGTLVTVSS
VL: DIVMTQSPLSLPTTLGQPASISCKASQNVDINVAWYQQRPGQSPRALIYSASYRYSGVPDRFSGSGSGTDFTLTISRVEAEDVGVFYCQQYNAYPLTFGGGTKLEIK
notes: humanized, hIgG1
B15: 72B4H4 H4L1 hIgG1 (antibody, V domains shown)
VH: QVQLVQSGAEVVKPGASVKLSCKASGYTFTNYWMNWVKQRPGQGLEWIGRIDAYAGETHYNQKFKDRAILTVDKSTSTAYMELRSLRSEDTAVYYCARGYGDAYGMDHWGQGTLVTVSS
VL: DIQMTQSPSSLSASVGDRVTITCRASESVDNYGISFMNWYQQKPGKAPKLLIYAASRQGSGVPSRFSGSGSGTDFTLTISSLQPEDFATYYCQQSKEVPWTFGQGTKVEIK
notes: humanized, hIgG1
B16: 72B4H4 H4L4 hIgG1 (antibody, V domains shown)
VH: QVQLVQSGAEVVKPGASVKLSCKASGYTFTNYWMNWVKQRPGQGLEWIGRIDAYAGETHYNQKFKDRAILTVDKSTSTAYMELRSLRSEDTAVYYCARGYGDAYGMDHWGQGTLVTVSS
VL: DIVLTQSPSSLSASVGDRATITCRASESVDNYGISFMNWFQQKPGKPPKLLIYAASRQGSGDPARFSGSGSGTDFTLTISSLQPEDFATYFCQQSKEVPWTFGGGTKLEIK
notes: humanized, hIgG1
B17: 72B4H4 H4L3 hIgG1 (antibody, V domains shown)
VH: QVQLVQSGAEVVKPGASVKLSCKASGYTFTNYWMNWVKQRPGQGLEWIGRIDAYAGETHYNQKFKDRAILTVDKSTSTAYMELRSLRSEDTAVYYCARGYGDAYGMDHWGQGTLVTVSS
VL: DIQLTQSPSSLSASVGDRVTITCRASESVDNYGISFMNWFQQKPGKAPKLLIYAASRQGSGDPARFSGSGSGTDFTLTISSLQPEDFATYFCQQSKEVPWTFGGGTKVEIK
notes: humanized, hIgG1
B18: 72B4H4 H4L2 hIgG1 (antibody, V domains shown)
VH: QVQLVQSGAEVVKPGASVKLSCKASGYTFTNYWMNWVKQRPGQGLEWIGRIDAYAGETHYNQKFKDRAILTVDKSTSTAYMELRSLRSEDTAVYYCARGYGDAYGMDHWGQGTLVTVSS
VL: DIQMTQSPSSLSASVGDRVTITCRASESVDNYGISFMNWFQQKPGKAPKLLIYAASRQGSGDPSRFSGSGSGTDFTLTISSLQPEDFATYFCQQSKEVPWTFGQGTKVEIK
notes: humanized, hIgG1

The first experiment has as its target T1, human interleukin 13 receptor subunit alpha 2 (IL-13RA2) (human, UniProt Q14627 27-380).
T1 construct: whole, on cells; also called IL-13Rα2; CD213A2
T1 sequence (looked up): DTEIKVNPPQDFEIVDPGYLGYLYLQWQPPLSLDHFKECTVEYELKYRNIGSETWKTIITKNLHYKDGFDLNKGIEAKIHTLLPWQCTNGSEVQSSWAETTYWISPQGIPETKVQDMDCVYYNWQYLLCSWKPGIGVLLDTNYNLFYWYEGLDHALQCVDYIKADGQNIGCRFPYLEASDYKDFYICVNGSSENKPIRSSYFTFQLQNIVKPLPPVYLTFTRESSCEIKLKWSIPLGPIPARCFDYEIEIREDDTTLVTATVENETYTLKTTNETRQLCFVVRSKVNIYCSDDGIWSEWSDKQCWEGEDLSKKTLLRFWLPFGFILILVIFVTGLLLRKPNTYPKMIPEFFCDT
Description: FACS on A375 cells. The procedure: A375 cells that endogenously expressed IL-13RA2 were harvested from flasks. 100 μl of 1×10⁶ cells/ml of cells were incubated with primary antibodies in 4-fold serial dilutions starting from 100 nM to 0.006 nM for 30 minutes on ice. After being washed with 200 μl of FACS buffer twice, cells were incubated with secondary antibody for 30 minutes on ice. Cells were washed with 200 μl of FACS buffer twice and analyzed by FACS.
For the molecule B1, the EC50 was 0.9 nM and the “Top (MFI)” value turned out to be 334000 MFI.

Another experiment deals with T1, human interleukin 13 receptor subunit …. Kind of experiment: FACS on A375 cells. This is another data set of the same source. The procedure:
A375 cells that endogenously expressed IL-13RA2, were harvested from flasks. 100 μl of 1×10⁶ cells/ml of cells were incubated with primary humanized antibodies in 4-fold serial dilutions starting from 200 nM to 0.003 nM for 30 minutes on ice. After being washed with 200 μl of FACS buffer twice, cells were incubated with secondary antibody for 30 minutes on ice. Cells were washed with 200 μl of FACS buffer twice and analyzed by FACS.
On to B2, for which a half-maximal effect (EC50) was put at 0.67 nM.

As to B3, the EC50 was 0.943 nM and 1.2 nM.

B4: the 50% effective concentration (EC50) was 1.12 nM and 1.51 nM.

With B5, the half-maximal effective concentration (EC50) is 0.69 nM and 0.67 nM.

For the molecule B6, the half-maximal effective concentration (EC50) is ~251 nM and ~522 nM.

B7: the EC50 was 1.12 nM and 1.31 nM.

With B8, the EC50 is 1.16 nM and 1.29 nM.

In the case of B9, the half-maximal effective concentration (EC50) was 0.909 nM and 1.45 nM.

On to B10, for which the half-maximal effective concentration (EC50) was 2.22 nM and 1.53 nM.

In the case of B11, the EC50 was 1.07 nM and 1.37 nM.

In the case of B12, the concentration giving a half-maximal response (EC50) is 1.61 nM and 0.66 nM.

With B13, the EC50 was 0.6 nM and 0.56 nM.

B14: the half-maximal effective concentration (EC50) is 1.49 nM and 1.17 nM.

Turning to B15, it took 0.552 nM to reach a half-maximal effect (EC50) and the “Top (MFI)” value is 8270 MFI.

Consider B16, for which the midpoint of the response, the EC50, lay at 1.18 nM and the “Top (MFI)” value was determined as 8180 MFI.

Consider B17, for which the concentration giving a half-maximal response (EC50) is 0.811 nM and the “Top (MFI)” value amounted to 8470 MFI.

Take B18: the EC50 was determined as 0.976 nM and the “Top (MFI)” value amounted to 8610 MFI.
